The values below come from PMC12079668, “Nanobodies against Cavin1 reveal structural flexibility and regulated interactions of its N-terminal coiled-coil domain” (Journal of Cell Science, 2025).

In data set [1] the target is T1, mouse Cavin1 HR1 Q76A (residues 45-155) (Mus musculus, UniProt O54724, Q76A).
T1 construct: mouse Cavin1 (PTRF), HR1 domain, residues 45-155, Q76A; also called mC1 HR1 Q76A; source: E. coli BL21(DE3)pLysS, purified (TALON, SEC)
In words: ITC; NbA12 at 500 μM or NbB7 at 400 μM titrated into 30 μM (monomer) cavin HR1 domain or His-MBP full-length mC1; GF150 buffer (20 mM HEPES pH 7.4, 150 mM NaCl), 25°C; fitted with a 1:1 binding ratio. The note with it: both partners purified. Background: Isothermal titration calorimetry measures the heat released or taken up as one component is titrated into another.

In data set [2] the target is T2, zebrafish Cavin4b HR1 domain (residues 12-133) (Danio rerio (Zebrafish) (Brachydanio …, UniProt Q5PQY9)).
T2 construct: zebrafish Cavin4b, HR1 domain, residues 12-133 (codon-optimised construct); also called zC4b-HR1; zC4b HR1; source: E. coli BL21 CodonPlus (DE3), purified (TALON, SEC)
T2 sequence (Q5PQY9 entry or part of it): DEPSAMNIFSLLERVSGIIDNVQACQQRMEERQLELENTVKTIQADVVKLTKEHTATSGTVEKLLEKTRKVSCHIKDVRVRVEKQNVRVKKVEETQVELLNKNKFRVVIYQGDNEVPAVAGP
Described as above. The note with it: both partners purified.

Data set [3] deals with T3, mouse Cavin1 HR1 H102I/T105I (HT/II) mutant (Mus musculus, UniProt O54724, H102I | T105I).
T3 construct: mouse Cavin1 (PTRF), HR1 domain with H102I and T105I; also called mC1 HR1 HT/II mutant; mC1-HR1(HT/II); source: E. coli BL21 CodonPlus (DE3), purified (glutathione Sepharose, GST removed on-column with thrombin, SEC); not shown: GST, N-terminal, cleaved
As to the kind of experiment: ITC; 200 μM NbA12 or NbB7 titrated into 6.25 μM trimeric mC1-HR1 HT/II or TS/DD mutant; GF150 buffer, 25°C; single-site fit. The note with it: both partners purified.

Data set [4] has as its target T4, mouse Cavin1 HR1 T105D/S106D (TS/DD) mutant (Mus musculus, UniProt O54724, T105D | S106D).
T4 construct: mouse Cavin1 (PTRF), HR1 domain with T105D and S106D (phosphomimetic); also called mC1 HR1 TS/DD mutant; mC1-HR1(TS/DD); source: E. coli BL21 CodonPlus (DE3), purified (glutathione Sepharose, GST removed on-column with thrombin, SEC); not shown: GST, N-terminal, cleaved
Described as above. The note with it: both partners purified.

Data set [5] concerns the target T5, mouse Cavin1 HR1 domain H102I/T105I (HT/II) mutant (Mus musculus, UniProt O54724, H102I | T105I).
T5 construct: mouse Cavin1 (PTRF), HR1 domain, residues 45-155, H102I/T105I; pGEX-4T2, GST removed with thrombin; also called mC1-HR1(HT/II); source: E. coli BL21 CodonPlus (DE3), purified (glutathione Sepharose, thrombin on-column, SEC); not shown: GST, N-terminal, cleaved
Described as above. The note with it: both partners purified.

Data set [6] deals with T6, mouse Cavin1 HR1 domain T105D/S106D (TS/DD) mutant (Mus musculus (Mouse)., UniProt O54724, T105D | S106D).
T6 construct: mouse Cavin1 (PTRF), HR1 domain, residues 45-155, T105D/S106D (phosphomimetic); pGEX-4T2, GST removed with thrombin; also called mC1-HR1(TS/DD); source: E. coli BL21 CodonPlus (DE3), purified (glutathione Sepharose, thrombin on-column, SEC); not shown: GST, N-terminal, cleaved
Described as above. The note with it: both partners purified.

Data set [7] addresses T7, zebrafish Cavin4b HR1 domain (Danio rerio, UniProt A0A8M1N3J3).
T7 construct: zebrafish Cavin4b, HR1 domain; Codon-optimised construct; also called zC4b-HR1; source: E. coli BL21 CodonPlus (DE3), purified (TALON, SEC)
As to the kind of experiment: ITC; NbA12 at 500 μM or NbB7 at 400 μM titrated into 30 μM (monomer) HR1 domain of cavins or His-MBP full-length mC1; GF150 buffer (20 mM HEPES pH 7.4, 150 mM NaCl), 25°C; single-site fit. Conditions: both partners purified.

Data set [8] concerns the target T8, mouse Cavin1 HR1 domain (residues 45–155), His-Ub-tagged (Mus musculus (Mouse)., UniProt O54724).
T8 construct: mouse Cavin1 (PTRF), HR1 coiled-coil domain, residues 45-155; pHUE vector; the methods say the His-Ub proteins were used for ITC; removal of the tag is not described; also called mC1-HR1; wild-type HR1 domain; source: E. coli BL21(DE3)pLysS, purified (TALON, SEC)
The description is as above. Conditions: both partners purified.

In the next data set the target is T9, endogenous CAV1 (HeLa) (Homo sapiens (Human)., UniProt Q03135).
T9 construct: CAV1 (caveolin 1), endogenous in human HeLa cells; also called caveolin 1; source: endogenous, HeLa lysate
T9 sequence (Q03135 whole entry): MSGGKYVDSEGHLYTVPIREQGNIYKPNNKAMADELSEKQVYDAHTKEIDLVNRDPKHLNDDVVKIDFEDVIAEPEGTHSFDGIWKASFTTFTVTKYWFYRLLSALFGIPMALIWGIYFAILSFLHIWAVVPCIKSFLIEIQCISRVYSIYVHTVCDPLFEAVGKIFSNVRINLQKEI
In words: co-IP; lysates of HeLa cells expressing NbA12–GFP or NbB7–GFP, GFP-binding nanobody on NHS-activated Sepharose; 0.5% Triton X-100; endogenous Cavin1 and CAV1 detected by western blot. The note with it: partners not purified. A general note: In western blotting, separated proteins are transferred to a membrane and probed.

The next data set addresses T10, endogenous Cavin1 (HeLa) (Homo sapiens (Human)., UniProt Q6NZI2).
T10 construct: Cavin1 (PTRF), endogenous in human HeLa cells; also called PTRF; source: endogenous, HeLa lysate
Described as above. The note with it: partners not purified.

For data set [9], the target named is T11, zebrafish Cavin4a HR1 domain (residues 16-123) (Danio rerio, UniProt A1L260).
T11 construct: zebrafish Cavin4a, HR1 domain, residues 16-123 (codon-optimised construct); also called zC4a-HR1; zC4a HR1; source: E. coli BL21 CodonPlus (DE3), purified (TALON, SEC)
T11 sequence (A1L260 16-123): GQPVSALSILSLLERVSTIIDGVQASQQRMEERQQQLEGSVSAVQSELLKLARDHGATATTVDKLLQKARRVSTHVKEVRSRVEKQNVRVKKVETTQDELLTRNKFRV
As to the kind of experiment: ITC; NbA12 at 500 μM or NbB7 at 400 μM titrated into 30 μM (monomer) cavin HR1 domain or His-MBP full-length mC1; GF150 buffer (20 mM HEPES pH 7.4, 150 mM NaCl), 25°C; fitted with a 1:1 binding ratio. The note with it: both partners purified.

Data set [10] has as its target T12, GST-tagged mouse Cavin1 HR1 domain (Mus musculus (Mouse)., UniProt O54724).
T12 construct: mouse Cavin1 (PTRF), HR1 coiled-coil domain, residues 45-155; pGEX-4T2 with thrombin site; GST kept for the pull-down and the liposome pelleting assay; also called GST–mC1-HR1; GST-tagged mC1-HR1; source: E. coli BL21 CodonPlus (DE3), purified (glutathione Sepharose); not shown: GST, N-terminal, kept
As to the kind of experiment: pull-down; GST–mC1-HR1 (1 nmol) as bait on glutathione Sepharose, His-tagged nanobodies (2 nmol) as prey; 20 mM HEPES, 150 mM NaCl, 1 mM DTT, 0.1% IGEPAL, pH 7.4; 4°C; SDS-PAGE. The note with it: both partners purified.

The target of data set [11] is T13, N-terminal fragment of mouse Cavin1 HR1 domain (residues 45–103) (Mus musculus (Mouse)., UniProt O54724).
T13 construct: mouse Cavin1 (PTRF), N-terminal part of the HR1 domain, residues 45-103; also called mC1-HR1(45–103); shorter fragment of mC1-HR1; source: E. coli BL21(DE3)pLysS, purified (TALON, SEC)
In words: ITC; NbA12 at 500 μM or NbB7 at 400 μM titrated into 30 μM (monomer) HR1 domain of cavins or His-MBP full-length mC1; GF150 buffer (20 mM HEPES pH 7.4, 150 mM NaCl), 25°C; single-site fit. Conditions: both partners purified.

Data set [12] deals with T14, zebrafish Cavin4a HR1 domain (Danio rerio, UniProt A1L260).
T14 construct: zebrafish Cavin4a, HR1 domain; Codon-optimised construct; also called zC4a-HR1; source: E. coli BL21 CodonPlus (DE3), purified (TALON, SEC)
T14 sequence (A1L260 whole entry, looked up, the tested form may be a part): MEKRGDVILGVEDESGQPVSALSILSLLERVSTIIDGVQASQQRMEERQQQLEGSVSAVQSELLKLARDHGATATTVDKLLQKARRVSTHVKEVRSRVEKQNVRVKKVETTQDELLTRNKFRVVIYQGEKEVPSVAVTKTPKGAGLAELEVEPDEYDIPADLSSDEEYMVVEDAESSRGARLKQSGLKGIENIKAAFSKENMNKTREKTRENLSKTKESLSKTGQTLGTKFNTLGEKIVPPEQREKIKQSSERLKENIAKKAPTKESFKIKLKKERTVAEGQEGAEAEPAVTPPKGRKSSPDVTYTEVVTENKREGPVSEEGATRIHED
The data set is described as above. Conditions: both partners purified.

Data set [13] has as its target T15, full-length mouse Cavin1, His-MBP-tagged (Mus musculus (Mouse)., UniProt O54724).
T15 construct: mouse Cavin1 (PTRF), full length; also called His-MBP full-length mC1; full-length MBP-tagged mC1; source: E. coli BL21(DE3)pLysS, purified (TALON, SEC)
The data set is described as above. The note with it: both partners purified.

Data set [14] deals with the molecule itself. As to the kind of experiment: crystal structure; complex formed with 1.5-fold molar excess of NbB7 and purified by SEC; hanging-drop vapour diffusion, 20°C; X-ray. In general terms: Size exclusion chromatography separates by hydrodynamic size, large species first.

T15 sequence (O54724 whole entry): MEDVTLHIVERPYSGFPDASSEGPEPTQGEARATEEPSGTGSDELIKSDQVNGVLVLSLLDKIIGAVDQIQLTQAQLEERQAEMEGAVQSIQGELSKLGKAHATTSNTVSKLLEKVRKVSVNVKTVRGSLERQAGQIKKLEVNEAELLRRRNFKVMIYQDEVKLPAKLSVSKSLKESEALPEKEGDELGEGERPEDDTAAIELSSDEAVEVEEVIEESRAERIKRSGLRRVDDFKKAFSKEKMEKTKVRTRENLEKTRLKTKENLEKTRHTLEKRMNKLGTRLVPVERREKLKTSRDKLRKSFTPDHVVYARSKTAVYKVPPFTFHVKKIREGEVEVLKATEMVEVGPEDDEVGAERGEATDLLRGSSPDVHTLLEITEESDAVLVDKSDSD
T10 sequence (Q6NZI2 whole entry): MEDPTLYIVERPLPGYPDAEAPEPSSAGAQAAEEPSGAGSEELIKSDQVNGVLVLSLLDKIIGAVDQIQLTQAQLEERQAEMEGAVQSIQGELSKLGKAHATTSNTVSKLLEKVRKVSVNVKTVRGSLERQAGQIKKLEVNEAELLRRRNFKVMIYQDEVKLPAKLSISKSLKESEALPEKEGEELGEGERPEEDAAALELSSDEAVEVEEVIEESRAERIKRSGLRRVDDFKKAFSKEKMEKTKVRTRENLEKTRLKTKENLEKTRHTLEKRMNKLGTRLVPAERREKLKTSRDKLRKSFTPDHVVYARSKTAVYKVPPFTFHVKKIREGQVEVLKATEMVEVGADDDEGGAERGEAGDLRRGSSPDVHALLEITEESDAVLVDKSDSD

B1: Nanobody NbB7 (VHH)
VHH: QVQLQESGGGLVQAGGSLRLSCAVSGIRVNVNAMYWYRQAPGKQRELVAIITTFGSTNYADSAKGRFTISRDNTKNTVYLQMDNLKPEDTAVYYCNAPQFTDRYWGQGTQVTVSS
notes: the same chain is in PDB 9EGN, 9EG6 and 9EIU; source: E. coli WK6, periplasmic expression, purified (TALON, SEC)
Take B1: the Kd turned out to be 2.89 ± 1.01 µM in [1], 0.14 ± 0.04 µM in data set [3] and 0.067 ± 0.02 µM in [4]. The binding result in data set [2] was “no binding”.

B2: nanobody NbB7 (VHH)
VHH: B1 VHH
notes: also in the deposited structures PDB 9EGN, 9EG6, 9EIU; alpaca nanobody raised against mC1-HR1; Cloned in pMES4 with a C-terminal 6x histidine tag; source: E. coli WK6, periplasmic expression, purified (TALON, SEC); not shown: His6, C-terminal, kept
Consider B2, for which the Kd amounted to 0.142 µM in [5], 0.0667 µM in [6] and 0.52 µM in data set [8]. Besides, the binding result in [7] was “no binding”.

B3: C-terminal GFP-tagged NbB7 (VHH)
VHH: B1 VHH
notes: as the VHH of m1; pEGFP-N1; also called NbB7–GFP; source: HeLa, transiently transfected, in lysate; not shown: GFP, C-terminal, kept
With B3, the binding result with endogenous CAV1 (HeLa) and in the data set with endogenous Cavin1 (HeLa) was “binds” throughout.

B4: Nanobody NbA12 (VHH)
VHH: QVQLQESGGGLVQAGGSLRLSCAASGFTFDDYAIGWFRQAPGKEREGVSCITSSDGSTYYADSVKGRFTISSDNAKNTVYLQMNSLKPEDTAVYYCAAESWPPLCHYSGMDYWGKGTQVTVSS
notes: Selected by phage display from an alpaca immunised with mC1-HR1; source: E. coli WK6, periplasmic expression, purified (TALON, SEC)
Turning to B4, the binding result in data set [2] and in [9] was “no binding” each time. The Kd was found to be 3.02 ± 1.94 µM in [3] and 2.17 ± 0.02 µM in data set [4].

B5: nanobody NbA12 (VHH)
VHH: B4 VHH
notes: alpaca nanobody raised against mC1-HR1; Cloned in pMES4 with a C-terminal 6x histidine tag; source: E. coli WK6, periplasmic expression, purified (TALON, SEC); not shown: His6, C-terminal, kept
As for B5, the binding result in data set [10] is “binds”; in [7], “no binding”; in data set [8], “binds”; in data set [11] it was “binds”; in data set [12], “no binding”; in [13], “binds”. For the same molecule, the values for the Kd in [5] and in data set [6] were 3 µM and 2 µM, respectively.

B6: mouse Cavin1 HR1 domain (residues 45–155) as crystallised with NbB7 (domain or fragment, UniProt O54724 45-155, looked up)
chain: LIKSDQVNGVLVLSLLDKIIGAVDQIQLTQAQLEERQAEMEGAVQSIQGELSKLGKAHATTSNTVSKLLEKVRKVSVNVKTVRGSLERQAGQIKKLEVNEAELLRRRNFKV
notes: mouse Cavin1 (PTRF), HR1 coiled-coil domain, residues 45-155 in the crystallised construct; residues 56-98 ordered; also called mC1-HR1; source: E. coli, purified (SEC)
On to B6, for which, in data set [14], the “stoichiometry N” value stood at 3.

The Kd is a measure of binding affinity in units of concentration. The stoichiometry N is the number of molecules, sites or subunits per partner or assembly.
